Target: T1, His-tagged CEACAM1 (human, UniProt P13688 35-428)
T1 construct: 45 kDa SPR analyte; also called CEACAM1-HIS; CEACAM1 analyte
T1 sequence: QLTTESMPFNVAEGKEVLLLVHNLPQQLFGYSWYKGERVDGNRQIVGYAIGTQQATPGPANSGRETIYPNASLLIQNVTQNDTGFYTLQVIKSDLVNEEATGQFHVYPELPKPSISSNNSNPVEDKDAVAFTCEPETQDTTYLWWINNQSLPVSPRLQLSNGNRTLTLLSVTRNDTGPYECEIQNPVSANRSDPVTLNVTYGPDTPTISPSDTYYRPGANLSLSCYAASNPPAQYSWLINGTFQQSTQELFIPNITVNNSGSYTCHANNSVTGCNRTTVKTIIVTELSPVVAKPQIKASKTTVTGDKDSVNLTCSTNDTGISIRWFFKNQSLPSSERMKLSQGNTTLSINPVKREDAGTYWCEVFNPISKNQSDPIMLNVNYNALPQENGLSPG
Test: SPR single-cycle, supernatant IgG captured
Protocol: In order to assess the binding of the humanized, affinity matured reformatted lead IgGs, single-cycle kinetics analysis was performed on crude supernatants using a Biacore T200 running Biacore T200 Control Software V2.0.1 and Biacore T200 Evaluation Software V3.0. Antibodies were diluted in HBS-P+ to a final concentration of 0.5 μg/ml. At the start of each cycle, antibodies were loaded onto Fc2, Fc3 and Fc4 of the Protein A chip. IgGs were captured at a flow rate of 10 μl/min to give an immobilisation level (RL) of ˜100 RU (a level calculated to obtain a Rₘₐₓ of ˜50-150 RU once the analyte is bound). The surface was then allowed to stabilize. Single-cycle kinetics data was obtained with CEACAM1 as the analyte at a flow rate of 80 μl/min to minimize any potential mass transfer effects. Multiple repeats with the parent (VH1/Vκ8 S29A) antibody were performed to check the stability of the surface and analyte over the kinetic cycles. The signal from the reference channel Fc1 (no antibody) was subtracted from that of Fc2, Fc3 and Fc4 to correct for differences in non-specific binding to the reference surface. A three point, two-fold dilution range from 70 nM to 280 nM CEACAM1 without regeneration between each concentration was used. The signal from each antibody blank run (no CEACAM1) was subtracted to correct for differences in surface stability. The association phase for the three injections of increasing concentrations of CEACAM1 was monitored for 80 seconds each time and a single dissociation phase was measured for 150 seconds following the last injection of CEACAM1. Regeneration of the Protein A surface was conducted using two injections of 10 mM glycine-HCL pH 1.5 followed by a stabilization period of 250 seconds.

B1: 9B3_9E5/CP08F05 (antibody, IgG4, V domains shown)
VH: EVQLLESGGGLVQPGGSLRLSCAASGFTFNAHAISWVRQAPGKGLEWVATISSGGTYTYYPDSVKGRFTISRDNSKNTLYLQMNSLKAEDTAMYYCARHGFDYDAAWFAYWGQGTLVTVSS
VL: EIVLTQSPATLSLSPGERATLSCRANSAVSYMYWYQQKPGQAPRPWIYLTSNRATGVPARFSGSGSGTDYTLTISSLEPEDFAVYYCQQWTSNPPTFGQGTKLEIK
notes: IgG4 (S241P), kappa
Kd: 95 nM
koff: 0.012 s⁻¹
kon: 130000 M⁻¹ s⁻¹
relative KD to parent: 5.9

B2: 9B3_9E5_8H3/CP08F05 (antibody, IgG4, V domains shown)
VH: EVQLLESGGGLVQPGGSLRLSCAASGFTFNAHAISWVRQAPGKGLEWVATISSGGTYTYYPDSVKGRFTISRDNSKNTLYLQMNSLKAEDTAMYYCARHGFDYFPYWFAHWGQGTLVTVSS
VL: EIVLTQSPATLSLSPGERATLSCRANSAVSYMYWYQQKPGQAPRPWIYLTSNRATGVPARFSGSGSGTDYTLTISSLEPEDFAVYYCQQWTSNPPTFGQGTKLEIK
notes: IgG4 (S241P), kappa
Kd: 210 nM
koff: 0.018 s⁻¹
kon: 86000 M⁻¹ s⁻¹
relative KD to parent: 2.4

B3: 9B3_9E5_8H3/CP08E05 (antibody, IgG4, V domains shown)
VH: EVQLLESGGGLVQPGGSLRLSCAASGFTFNAHAISWVRQAPGKGLEWVATISSGGTYTYYPDSVKGRFTISRDNSKNTLYLQMNSLKAEDTAMYYCARHGFDYFPYWFAHWGQGTLVTVSS
VL: EIVLTQSPATLSLSPGERATLSCRANSAVSYMYWYQQKPGQAPRPWIYLTSNRATGVPARFSGSGSGTDYTLTISSLEPEDFAVYYCQQWTTNPPTFGQGTKLEIK
notes: IgG4 (S241P), kappa
Kd: 270 nM
koff: 0.022 s⁻¹
kon: 82000 M⁻¹ s⁻¹
relative KD to parent: 1.9

B4: 9B3_9E5_8H3/Vκ8 S29A (antibody, IgG4, V domains shown)
VH: EVQLLESGGGLVQPGGSLRLSCAASGFTFNAHAISWVRQAPGKGLEWVATISSGGTYTYYPDSVKGRFTISRDNSKNTLYLQMNSLKAEDTAMYYCARHGFDYFPYWFAHWGQGTLVTVSS
VL: EIVLTQSPATLSLSPGERATLSCRANSAVSYMYWYQQKPGQAPRPWIYLTSNRATGVPARFSGSGSGTDYTLTISSLEPEDFAVYYCQQWSSNPPTFGQGTKLEIK
notes: IgG4 (S241P), kappa
Kd: 210 nM
koff: 0.02 s⁻¹
kon: 95000 M⁻¹ s⁻¹
relative KD to parent: 2.4

B5: 9B3_9E5/Vκ8 S29A (antibody, IgG4, V domains shown)
VH: EVQLLESGGGLVQPGGSLRLSCAASGFTFNAHAISWVRQAPGKGLEWVATISSGGTYTYYPDSVKGRFTISRDNSKNTLYLQMNSLKAEDTAMYYCARHGFDYDAAWFAYWGQGTLVTVSS
VL: EIVLTQSPATLSLSPGERATLSCRANSAVSYMYWYQQKPGQAPRPWIYLTSNRATGVPARFSGSGSGTDYTLTISSLEPEDFAVYYCQQWSSNPPTFGQGTKLEIK
notes: IgG4 (S241P), kappa
Kd: 150 nM
koff: 0.021 s⁻¹
kon: 140000 M⁻¹ s⁻¹
relative KD to parent: 3.8
